In patent publication US20090203610A1, “METHODS OF TREATING OBESITY OR DIABETES USING NT-4/5” (RINAT NEUROSCIENCE CORPORATION, priority 2004, published 2009):

What was measured:
Assay type in all cases: in vivo
[1] = system: db/db mice; experiment: Co-administration of Mab 1241 with NT4/5 in db/db mice (Example 15); details: NT4/5 2 mg/kg s.c. daily day 1-5; Mab 1241 5 mg/kg i.p. single on day 1
Description: Test animals: 32 Leptin receptor mutant db/db mice (BSK.Cg-m+/+Leprdb) obtained from Jackson Laboratory were used for the study. The mice were divided into four groups of 8 animals each (groups 1-4), with homogeneous initial body weight and glycemia values based on a randomization table. The mice were housed one per cage.
Anti-NT4/5 and NT4/5: Both anti-NT4/5 monoclonal antibody Mab 1241 and human NT4/5 were obtained from Genentech. […] (data not shown).
Administration of Mab 1241 and NT4/5: On day one, mice in groups 1-4 were treated with vehicle (PBS) subcutanouesly (s.c.), 5 mg/kg Mab 1241 intraperitioneally (i.p.), 5 mg/kg Mab 1241 intraperitioneally (i.p.) plus 2 mg/kg NT4/5 subcutanouesly (s.c.), and 2 mg/kg NT4/5 subcutanouesly (s.c.), respectively. On day 2 through day 5, group 1 was treated with a daily dose of vehicle (PBS) subcutanouesly (s.c.). Groups 3 and 4 were treated with a daily dose of 2 mg/kg NT4/5 subcutanouesly (s.c.).
Baseline non-fasted blood glucose level was measured by One-Touch Ultra glucose meter from the tail bleed.

[2] = system: DIO mice; experiment: Body weight and food intake in high fat diet-induced obese (DIO) mice (Example 5); details: 2 and 10 mg/kg s.c.; P<0.001; dose dependent
Experimental: Test animals: Mice with diet induced obesity (DIO) from Jackson Laboratory were used in this study. El-Haschimi, J. Clin. Invest. 105:1827-1832 (2000); Steppan, Nature 409:307-312 (2001). 23 male C57BL/6J mice were weaned at 4 weeks of age. Immediately after weaning they were put on about 58% high fat diet ([…], Research Diet) through out the study. The DIO mice at 13 weeks of age weighing in the range of 28-40 g were used in this study. Older mice at 22-24 weeks of age were also used.
Administration of NT-4/5: NT-4/5 used in this study was obtained from Genentech. The mice were divided into 3 groups of equivalent body weight and baseline blood glucose distribution (7-8 mice per group). Each group received from day 1 to day 5, from day 8 to day 12, from day 15 to 16 a daily subcutaneous dose of either vehicle, 2 mg/kg or 10 mg/kg of NT-4/5, respectively. Five days prior to the treatment started (day −5), a baseline blood samples were collected for measuring glucose and triglyceride. Subsequent to the treatment started (day 1), blood glucose and triglyceride were measured once a week. Body weight, food intake were monitored 5 days per week through out the entire study. […] They were fasted overnight (for 16 hours) before fasting glucose levels were measured and the oral glucose tolerance test was conducted with a load of 2 grams of glucose/kg of body weight.

[3] = system: db/db mice; experiment: Dose response of NT-4/5 on body weight and percentage change in body weight of db/db mice (Example 2, Tables 16, 17); set-up: body weight: unit not given here; details: for body weight / percentage change in body weight: db/db mice, 12 week, female, mean
Experimental: Db/db mice maintained as described in Example 1 were divided into five groups (groups 1-5). Group 1 (7 mice) were administered with vehicle (PBS). Group 2 (7 mice), group 3 (8 mice), group 4 (8 mice), group 5 (8 mice) were each administered with NT-4/5 at the doses of 2 mg/kg, 5 mg/kg, 10 mg/kg, and 20 mg/kg, respectively. Both the vehicle and NT-4/5 were administered to each group of the mice subcutaneously once daily for five days. One day before beginning the treatment (T0), blood samples were collected from the mice as described previously for the determination of baseline levels of serum biomarkers (glucose, triglyceride, and cholesterol). Similarly, at day 6 (T6), blood samples were collected for the determination of serum biomarker levels. The blood samples were treated in the same manner as described in Example 1.
From two days before the treatment (T-1) to day 6 (T6), individual food intakes of the mice were measured daily. Individual body weights were also measured daily from 6 days before the treatment (T-5) to day 7 (T7).

B1: NT-4/5: mature human neurotrophin-4/5 (SEQ ID NO:1), obtained from Genentech or produced in E. coli (protein, listed as Homo sapiens)
chain: GVSETAPASRRGELAVCDAVSGWVTDRRTAVDLRGREVEVLGEVPAAGGSPLRQYFFETRCKADNAEEGGPGAGGGGCRGVDRRHWVSECKAKQSYVRALTADAQGRVGWRWIRIDTACVCTLLSRTGRA
body weight [1]: small, but statistically insignificant reduction in body weight
food intake [1]: significantly reduced food intake on day 8 and day 10
non-fasted glucose level [1]: reduced non-fasted glucose level only on day 9, but not on day 4
body weight [2]: significantly reduced
food intake [2]: significantly reduced
body weight as compared to vehicle ([3]; 2, 5, 10 and 20 mg/kg): significantly decreased body weight
body weight ([3]; NT-4/5 2 mg/kg, Day 1): 39.66
percentage change in body weight ([3]; NT-4/5 2 mg/kg, Day 1): 101.83%
body weight ([3]; NT-4/5 2 mg/kg, Day 3): 38.96
percentage change in body weight ([3]; NT-4/5 2 mg/kg, Day 3): 98.27%
body weight ([3]; NT-4/5 2 mg/kg, Day 5): 38.17
percentage change in body weight ([3]; NT-4/5 2 mg/kg, Day 5): 96.24%
body weight ([3]; NT-4/5 2 mg/kg, Day 7): 37.50
percentage change in body weight ([3]; NT-4/5 2 mg/kg, Day 7): 94.57%
body weight ([3]; NT-4/5 2 mg/kg, Day −1): 38.94
body weight ([3]; NT-4/5 5 mg/kg, Day 1): 41.03
percentage change in body weight ([3]; NT-4/5 5 mg/kg, Day 1): 101.51%
body weight ([3]; NT-4/5 5 mg/kg, Day 3): 39.26
percentage change in body weight ([3]; NT-4/5 5 mg/kg, Day 3): 95.71%
body weight ([3]; NT-4/5 5 mg/kg, Day 5): 38.48
percentage change in body weight ([3]; NT-4/5 5 mg/kg, Day 5): 93.79%
body weight ([3]; NT-4/5 5 mg/kg, Day 7): 37.00
percentage change in body weight ([3]; NT-4/5 5 mg/kg, Day 7): 90.15%
body weight ([3]; NT-4/5 5 mg/kg, Day −1): 40.41
body weight ([3]; NT-4/5 10 mg/kg, Day 1): 39.99
percentage change in body weight ([3]; NT-4/5 10 mg/kg, Day 1): 101.07%
body weight ([3]; NT-4/5 10 mg/kg, Day 3): 38.49
percentage change in body weight ([3]; NT-4/5 10 mg/kg, Day 3): 96.28%
body weight ([3]; NT-4/5 10 mg/kg, Day 5): 37.35
percentage change in body weight ([3]; NT-4/5 10 mg/kg, Day 5): 93.43%
body weight ([3]; NT-4/5 10 mg/kg, Day 7): 36.04
percentage change in body weight ([3]; NT-4/5 10 mg/kg, Day 7): 90.14%
body weight ([3]; NT-4/5 10 mg/kg, Day −1): 39.58
body weight ([3]; NT-4/5 20 mg/kg, Day 1): 40.73
percentage change in body weight ([3]; NT-4/5 20 mg/kg, Day 1): 100.31%
body weight ([3]; NT-4/5 20 mg/kg, Day 3): 39.10
percentage change in body weight ([3]; NT-4/5 20 mg/kg, Day 3): 96.01%
body weight ([3]; NT-4/5 20 mg/kg, Day 5): 37.71
percentage change in body weight ([3]; NT-4/5 20 mg/kg, Day 5): 92.60%
body weight ([3]; NT-4/5 20 mg/kg, Day 7): 36.00
percentage change in body weight ([3]; NT-4/5 20 mg/kg, Day 7): 88.38%
body weight ([3]; NT-4/5 20 mg/kg, Day −1): 40.60
